B1: Multidrug resistance associated protein (Homo sapiens), Q96QA9 (protein)
chain: MDALCGSGELGSKFWDSNLSVHTENPDLTPCFQNSLLAWVPCIYLWVALPCYLLYLRHHCRGYIILSHLSKLKMVLGVLLWCVSWADLFYSFHGLVHGRAPAPVFFVTPLVVGVTMLLATLLIQYERLQGVQSSGVLIIFWFLCVVCAIVPFRSKILLAKAEGEISDPFRFTTFYIHFALVLSALILACFREKPPFFSAKNVDPNPYPETSAGFLSRLFFWWFTKMAIYGYRHPLEEKDLWSLKEEDRSQMVVQQLLEAWRKQEKQTARHKASAAPGKNASGEDEVLLGARPRPRKPSFLKALLATFGSSFLISACFKLIQDLLSFINPQLLSILIRFISNPMAPSWWGFLVAGLMFLCSMMQSLILQHYYHYIFVTGVKFRTGIMGVIYRKALVITNSVKRASTVGEIVNLMSVDAQRFMDLAPFLNLLWSAPLQIILAIYFLWQNLGPSVLAGVAFMVLLIPLNGAVAVKMRAFQVKQMKLKDSRIKLMSEILNGIKVLKLYAWEPSFLKQVEGIRQGELQLLRTAAYLHTTTTFTWMCSPFLVTLITLWVYVYVDPNNVLDAEKAFVSVSLFNILRLPLNMLPQLISNLTQASVSLKRIQQFLSQEELDPQSVERKTISPGYAITIHSGTFTWAQDLPPTLHSLDIQVPKGALVAVVGPVGCGKSSLVSALLGEMEKLEGKVHMKGSVAYVPQQAWIQNCTLQENVLFGKALNPKRYQQTLEACALLADLEMLPGGDQTEIGEKGINLSGGQRQRVSLARAVYSDADIFLLDDPLSAVDSHVAKHIFDHVIGPEGVLAGKTRVLVTHGISFLPQTDFIIVLADGQVSEMGPYPALLQRNGSFANFLCNYAPDEDQGHLEDSWTALEGAEDKEALLIEDTLSNHTDLTDNDPVTYVVQKQFMRQLSALSSDGEGQGRPVPRRHLGPSEKVQVTEAKADGALTQEEKAAIGTVELSVFWDYAKAVGLCTTLAICLLYVGQSAAAIGANVWLSAWTNDAMADSRQNNTSLRLGVYAALGILQGFLVMLAAMAMAAGGIQAARVLHQALLHNKIRSPQSFFDTTPSGRILNCFSKDIYVVDEVLAPVILMLLNSFFNAISTLVVIMASTPLFTVVILPLAVLYTLVQRFYAATSRQLKRLESVSRSPIYSHFSETVTGASVIRAYNRSRDFEIISDTKVDANQRSCYPYIISNRWLSIGVEFVGNCVVLFAALFAVIGRSSLNPGLVGLSVSYSLQVTFALNWMIRMMSDLESNIVAVERVKEYSKTETEAPWVVEGSRPPEGWPPRGEVEFRNYSVRYRPGLDLVLRDLSLHVHGGEKVGIVGRTGAGKSSMTLCLFRILEAAKGEIRIDGLNVADIGDPILFSGTLRMNLDPFGSYSEEDIWWALELSHLHTFVSSQPAGLDFQCSEGGENLSVGQRQLVCLARALLRKSRILVLDEATAAIDLETDNLIQATIRTQFDTCTVLTIAHRLNTIMDYTRVLVLDKGVVAEFDSPANLIAARGIFYGMARDAGLA
B2: ATP-binding cassette sub-family C member 2 (Homo sapiens) (protein)
chain: MLEKFCNSTFWNSSFLDSPEADLPLCFEQTVLVWIPLGYLWLLAPWQLLHVYKSRTKRSSTTKLYLAKQVFVGFLLILAAIELALVLTEDSGQATVPAVRYTNPSLYLGTWLLVLLIQYSRQWCVQKNSWFLSLFWILSILCGTFQFQTLIRTLLQGDNSNLAYSCLFFISYGFQILILIFSAFSENNESSNNPSSIASFLSSITYSWYDSIILKGYKRPLTLEDVWEVDEEMKTKTLVSKFETHMKRELQKARRALQRRQEKSSQQNSGARLPGLNKNQSQSQDALVLEDVEKKKKKSGTKKDVPKSWLMKALFKTFYMVLLKSFLLKLVNDIFTFVSPQLLKLLISFASDRDTYLWIGYLCAILLFTAALIQSFCLQCYFQLCFKLGVKVRTAIMASVYKKALTLSNLARKEYTVGETVNLMSVDAQKLMDVTNFMHMLWSSVLQIVLSIFFLWRELGPSVLAGVGVMVLVIPINAILSTKSKTIQVKNMKNKDKRLKIMNEILSGIKILKYFAWEPSFRDQVQNLRKKELKNLLAFSQLQCVVIFVFQLTPVLVSVVTFSVYVLVDSNNILDAQKAFTSITLFNILRFPLSMLPMMISSMLQASVSTERLEKYLGGDDLDTSAIRHDCNFDKAMQFSEASFTWEHDSEATVRDVNLDIMAGQLVAVIGPVGSGKSSLISAMLGEMENVHGHITIKGTTAYVPQQSWIQNGTIKDNILFGTEFNEKRYQQVLEACALLPDLEMLPGGDLAEIGEKGINLSGGQKQRISLARATYQNLDIYLLDDPLSAVDAHVGKHIFNKVLGPNGLLKGKTRLLVTHSMHFLPQVDEIVVLGNGTIVEKGSYSALLAKKGEFAKNLKTFLRHTGPEEEATVHDGSEEEDDDYGLISSVEEIPEDAASITMRRENSFRRTLSRSSRSNGRHLKSLRNSLKTRNVNSLKEDEELVKGQKLIKKEFIETGKVKFSIYLEYLQAIGLFSIFFIILAFVMNSVAFIGSNLWLSAWTSDSKIFNSTDYPASQRDMRVGVYGALGLAQGIFVFIAHFWSAFGFVHASNILHKQLLNNILRAPMRFFDTTPTGRIVNRFAGDISTVDDTLPQSLRSWITCFLGIISTLVMICMATPVFTIIVIPLGIIYVSVQMFYVSTSRQLRRLDSVTRSPIYSHFSETVSGLPVIRAFEHQQRFLKHNEVRIDTNQKCVFSWITSNRWLAIRLELVGNLTVFFSALMMVIYRDTLSGDTVGFVLSNALNITQTLNWLVRMTSEIETNIVAVERITEYTKVENEAPWVTDKRPPPDWPSKGKIQFNNYQVRYRPELDLVLRGITCDIGSMEKIGVVGRTGAGKSSLTNCLFRILEAAGGQIIIDGVDIASIGLHDLREKLTIIPQDPILFSGSLRMNLDPFNNYSDEEIWKALELAHLKSFVASLQLGLSHEVTEAGGNLSIGQRQLLCLGRALLRKSKILVLDEATAAVDLETDNLIQTTIQNEFAHCTVITIAHRLHTIMDSDKVMVLDNGKIIECGSPEELLQIPGPFYFMAKEAGIENVNSTKF

Key:
[1] = substrate: C#C[C@]1(O)CC[C@H]2[C@@H]3CCc4cc(O[C@@H]5O[C@H](C(=O)O)[C@@H](O)[C@H](O)[C@H]5O)ccc4[C@H]3CC[C@@]21C; experiment: TP_TRANSPORTER: uptake in membrane vesicle from MRP3-expressing Sf9 cells; assay type: functional, cell membranes
[2] = substrate: [H][C@@]12CC[C@@](O)(C#C)[C@@]1(C)CC[C@]1([H])c3ccc(O[C@@H]4O[C@H](C(=O)O)[C@@H](O)[C@H](O)[C@H]4O)cc3CC[C@@]21[H]; experiment: TP_TRANSPORTER: uptake in membrane vesicles from MRP2-expressing Sf9 cells; assay type: functional, cell membranes, Membrane vesicle

| Protein | Km [1] [µM] | Km [2] [µM] |
| --- | --- | --- |
| B1 | 9.2 |  |
| B2 |  | 35.1 |
